Data as given in patent US20240294593A1 (Genentech, published 2024).
Where a chain is given by its changes, count along the chain named. Names and notes keep the numbering of the source.

B1: H1.79_L1 (antibody, V domains shown)
VH: EVQLVESGGGLVQPGGSLRLSCAASGFTFSSFGMHWVRQAPGKGLEWVSYISSGSYIIYYADSVKGRFTISRDNAKNSLYLQMNSLRAEDTAVYYCARGGRLVWSPDYWGQGTLVTVSS
VL: DIVMTQSPDSLAVSLGERATINCKSSQSLLNSGNQKNYLTWYQQKPGQPPKLLIYWASTRESGVPDRFTGSGSGTDFTLTISSLQAEDVAVYYCQNDYSYPFTFGSGTKLEIKR
notes: also called VH-S60Y; Kabat 55
B2: H1.91_L1 (antibody, V domains shown)
VH: B1 VH with Y56S, I58F
VL: B1 VL
notes: also called VH-I62F; Kabat 57
B3: H1.96_L1 (antibody, V domains shown)
VH: B1 VH with Y56S, I58E
VL: B1 VL
notes: also called VH-I62E; Kabat 57
B4: H1.92_L1 (antibody, V domains shown)
VH: B1 VH with Y56S, I58T
VL: B1 VL
notes: also called VH-I62T; Kabat 57
B5: H1.99_L1 (antibody, V domains shown)
VH: B1 VH with Y56S, Y59H
VL: B1 VL
notes: also called VH-Y63H; Kabat 58
B6: H1.90_L1 (antibody, V domains shown)
VH: B1 VH with Y56S, I58L
VL: B1 VL
notes: also called VH-I62L; Kabat 57
B7: H1.93_L1 (antibody, V domains shown)
VH: B1 VH with Y56S, I58W
VL: B1 VL
notes: also called VH-I62W; Kabat 57
B8: H1.95_L1 (antibody, V domains shown)
VH: B1 VH with Y56S, I58N
VL: B1 VL
notes: also called VH-I62N; Kabat 57
B9: H1.85_L1 (antibody, V domains shown)
VH: B1 VH with Y56S, I57A
VL: B1 VL
notes: also called VH-I61A; Kabat 56
B10: H1.80_L1 (antibody, V domains shown)
VH: B1 VH with Y56S, I57V
VL: B1 VL
notes: also called VH-I61V; Kabat 56
B11: H1.89_L1 (antibody, V domains shown)
VH: B1 VH with Y56S, I58V
VL: B1 VL
notes: also called VH-I62V; Kabat 57
B12: H1.97_L1 (antibody, V domains shown)
VH: B1 VH with Y56S, I58K
VL: B1 VL
notes: also called VH-I62K; Kabat 57
B13: H1.94_L1 (antibody, V domains shown)
VH: B1 VH with Y56S, I58A
VL: B1 VL
notes: also called VH-I62A; Kabat 57
B14: H1.160_L1 (antibody, V domains shown)
VH: B1 VH with Y56S, S105T
VL: B1 VL
notes: also called VH-S113T; Kabat 100a
B15: H1_L1.7 (antibody, V domains shown)
VH: B1 VH with Y56S
VL: B1 VL with N31G
notes: also called VL-N31G; Kabat 27d
B16: H1.156_L1 (antibody, V domains shown)
VH: B1 VH with Y56S, W104Q
VL: B1 VL
notes: also called VH-W112Q; Kabat 100; copies: 2 + 2
B17: H1.166_L1 (antibody, V domains shown)
VH: B1 VH with Y56S, S105D
VL: B1 VL
notes: also called VH-S113D; Kabat 100a
B18: H1_L1.12 (antibody, V domains shown)
VH: B1 VH with Y56S
VL: B1 VL with S32V
notes: also called VL-S32V; Kabat 27e
B19: H1.164_L1 (antibody, V domains shown)
VH: B1 VH with Y56S, S105V
VL: B1 VL
notes: also called VH-S113V; Kabat 100a
B20: H1.163_L1 (antibody, V domains shown)
VH: B1 VH with Y56S, S105G
VL: B1 VL
notes: also called VH-S113G; Kabat 100a
B21: H1_L1.10 (antibody, V domains shown)
VH: B1 VH with Y56S
VL: B1 VL with S32A
notes: also called VL-S32A; Kabat 27e
B22: H1_L1.2 (antibody, V domains shown)
VH: B1 VH with Y56S
VL: B1 VL with N31E
notes: also called VL-N31E; Kabat 27d
B23: H1_L1.11 (antibody, V domains shown)
VH: B1 VH with Y56S
VL: B1 VL with S32Q
notes: also called VL-S32Q; Kabat 27e
B24: H1_L1.14 (antibody, V domains shown)
VH: B1 VH with Y56S
VL: B1 VL with S32K
notes: also called VL-S32K; Kabat 27e
B25: H1.161_L1 (antibody, V domains shown)
VH: B1 VH with Y56S, S105A
VL: B1 VL
notes: also called VH-S113A; Kabat 100a
B26: H1_L1.9 (antibody, V domains shown)
VH: B1 VH with Y56S
VL: B1 VL with S32T
notes: also called VL-S32T; Kabat 27e
B27: H1_L1.13 (antibody, V domains shown)
VH: B1 VH with Y56S
VL: B1 VL with S32H
notes: also called VL-S32H; Kabat 27e
B28: H1.155_L1 (antibody, V domains shown)
VH: B1 VH with Y56S, W104H
VL: B1 VL
notes: also called VH-W112H; Kabat 100; copies: 2 + 2
B29: H1.153_L1 (antibody, V domains shown)
VH: B1 VH with Y56S, W104Y
VL: B1 VL
notes: also called VH-W112Y; Kabat 100; copies: 2 + 2
B30: H1_L1.5 (antibody, V domains shown)
VH: B1 VH with Y56S
VL: B1 VL with N31L
notes: also called VL-N31L; Kabat 27d
B31: H1.157_L1 (antibody, V domains shown)
VH: B1 VH with Y56S, W104S
VL: B1 VL
notes: also called VH-W112S; Kabat 100; copies: 2 + 2
B32: H1_L1.8 (antibody, V domains shown)
VH: B1 VH with Y56S
VL: B1 VL with N31Y
notes: also called VL-N31Y; Kabat 27d
B33: H1.158_L1 (antibody, V domains shown)
VH: B1 VH with Y56S, W104E
VL: B1 VL
notes: also called VH-W112E; Kabat 100; copies: 2 + 2
B34: H1_L1.6 (antibody, V domains shown)
VH: B1 VH with Y56S
VL: B1 VL with N31T
notes: also called VL-N31T; Kabat 27d
B35: H1.190_L1.1 (XENP32806) (antibody, human IgG1, kappa, V domains shown)
VH: B1 VH with Y56S, R101A, W104F
VL: B1 VL with N31H
notes: VH substitution R109A/W112F (Xencor #); R97A/W100F (Kabat); also called mAb C[PD1]_H1.190_L1.1_IgG1_PVA_/S267K
B36: H1.192_L1.1 (XENP32808) (antibody, human IgG1, kappa, V domains shown)
VH: B1 VH with Y56S, V103L, W104F, S105A
VL: B1 VL with N31H
notes: VH substitution V111L/W112F/S113A (Xencor #); V99L/W100F/S100aA (Kabat); also called mAb C[PD1]_H1.192_L1.1_IgG1_PVA_/S267K
B37: H1.189_L1.1 (XENP32805) (antibody, human IgG1, kappa, V domains shown)
VH: B1 VH with Y56S, L102R, W104F, S105T
VL: B1 VL with N31H
notes: VH substitution L110R/W112F/S113T (Xencor #); L98R/W100F/S100aT (Kabat); also called mAb C[PD1]_H1.189_L1.1_IgG1_PVA_/S267K
B38: H1.191_L1.1 (XENP32807) (antibody, human IgG1, kappa, V domains shown)
VH: B1 VH with Y56S, V103T, W104F
VL: B1 VL with N31H
notes: VH substitution V111T/W112F (Xencor #); V99T/W100F (Kabat); also called mAb C[PD1]_H1.191_L1.1_IgG1_PVA_/S267K

target: T1, human PD-1-His (human, UniProt Q15116 25-167, limits assumed); assay: Octet
T1 construct: Antigen of the Octet assays; not shown: His tag
T1 sequence (Q15116 25-167 limits assumed): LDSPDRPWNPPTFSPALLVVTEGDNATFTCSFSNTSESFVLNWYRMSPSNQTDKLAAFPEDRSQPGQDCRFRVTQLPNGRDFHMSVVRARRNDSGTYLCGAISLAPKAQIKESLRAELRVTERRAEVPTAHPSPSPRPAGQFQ

Row | Kd | koff | kon | Binder
1 | 43.4 nM | 0.00686 s⁻¹ | 158000 M⁻¹ s⁻¹ | B1
2 | 61 nM | 0.00917 s⁻¹ | 150000 M⁻¹ s⁻¹ | B2
3 | 41.6 nM | 0.00751 s⁻¹ | 181000 M⁻¹ s⁻¹ | B3
4 | 47.8 nM | 0.00851 s⁻¹ | 178000 M⁻¹ s⁻¹ | B4
5 | 261 nM | 0.0651 s⁻¹ | 250000 M⁻¹ s⁻¹ | B5
6 | 51.5 nM | 0.00727 s⁻¹ | 141000 M⁻¹ s⁻¹ | B6
7 | 31 nM | 0.00528 s⁻¹ | 170000 M⁻¹ s⁻¹ | B7
8 | 73.4 nM | 0.0119 s⁻¹ | 162000 M⁻¹ s⁻¹ | B8
9 | 132 nM | 0.0618 s⁻¹ | 467000 M⁻¹ s⁻¹ | B9
10 | 207 nM | 0.0466 s⁻¹ | 226000 M⁻¹ s⁻¹ | B10
11 | 43.2 nM | 0.00669 s⁻¹ | 155000 M⁻¹ s⁻¹ | B11
12 | 114 nM | 0.0175 s⁻¹ | 154000 M⁻¹ s⁻¹ | B12
13 | 80.6 nM | 0.0161 s⁻¹ | 200000 M⁻¹ s⁻¹ | B13

target: T1, human PD-1-His; assay: Octet; remark: another data set of the same source

Row | Kd | koff | kon | binding result | Binder
14 | 90.7 nM | 0.00764 s⁻¹ | 84300 M⁻¹ s⁻¹ | – | B14
15 | 84.6 nM | 0.00875 s⁻¹ | 103000 M⁻¹ s⁻¹ | – | B15
16 | – | – | – | no binding | B16
17 | 189 nM | 0.0457 s⁻¹ | 242000 M⁻¹ s⁻¹ | – | B17
18 | 111 nM | 0.0115 s⁻¹ | 104000 M⁻¹ s⁻¹ | – | B18
19 | 280 nM | 0.0166 s⁻¹ | 59400 M⁻¹ s⁻¹ | – | B19
20 | 92 nM | 0.0113 s⁻¹ | 123000 M⁻¹ s⁻¹ | – | B20
21 | 82.9 nM | 0.00755 s⁻¹ | 91000 M⁻¹ s⁻¹ | – | B21
22 | 152 nM | 0.0228 s⁻¹ | 150000 M⁻¹ s⁻¹ | – | B22
23 | 103 nM | 0.00997 s⁻¹ | 96500 M⁻¹ s⁻¹ | – | B23
24 | 170 nM | 0.0141 s⁻¹ | 83200 M⁻¹ s⁻¹ | – | B24
25 | 47.5 nM | 0.00755 s⁻¹ | 159000 M⁻¹ s⁻¹ | – | B25
26 | 46.7 nM | 0.005 s⁻¹ | 107000 M⁻¹ s⁻¹ | – | B26
27 | 103 nM | 0.0106 s⁻¹ | 102000 M⁻¹ s⁻¹ | – | B27
28 | – | – | – | no binding | B28
29 | – | – | – | no binding | B29
30 | 32.9 nM | 0.00569 s⁻¹ | 173000 M⁻¹ s⁻¹ | – | B30
31 | – | – | – | no binding | B31
32 | 307 nM | 0.0247 s⁻¹ | 80600 M⁻¹ s⁻¹ | – | B32
33 | – | – | – | no binding | B33
34 | 64.6 nM | 0.00777 s⁻¹ | 120000 M⁻¹ s⁻¹ | – | B34

target: T1, human PD-1-His; assay: Octet (BLI), AHC capture of the bivalent mAb, PD-1 in solution

Row | koff | kon | Binder
35 | 0.00271 s⁻¹ | 191000 M⁻¹ s⁻¹ | B35
36 | 0.00317 s⁻¹ | 88500 M⁻¹ s⁻¹ | B36
37 | 0.00199 s⁻¹ | 83800 M⁻¹ s⁻¹ | B37
38 | 0.00382 s⁻¹ | 106000 M⁻¹ s⁻¹ | B38

target: T1, human PD-1-His; assay: Octet (BLI), AHC biosensors capture the bivalent mAb, dipped into multiple concentrations of PD-1; KDapp per legend

Row | Kd | Binder
39 | 14.2 nM | B35
40 | 35.8 nM | B36
41 | 23.7 nM | B37
42 | 36 nM | B38
